Experimental data published in patent US20240181075A1 (published 2024).
One block for each binder: values may come before it.

Key:
Monkey N4 = test: flow cytometry, transfected CHO cells
Rat N4 [1] = test: flow cytometry, transfected CHO cells
Mouse N4 [2] = test: flow cytometry, transfected CHO cells
[3] = biological target: T1, human Nectin-4 on cells (CHO cells transfected with human Nectin-4 cDNA); SUM190 tumor cells; normal … (human, UniProt Q96NY8 32-510); test: flow
T1 chain: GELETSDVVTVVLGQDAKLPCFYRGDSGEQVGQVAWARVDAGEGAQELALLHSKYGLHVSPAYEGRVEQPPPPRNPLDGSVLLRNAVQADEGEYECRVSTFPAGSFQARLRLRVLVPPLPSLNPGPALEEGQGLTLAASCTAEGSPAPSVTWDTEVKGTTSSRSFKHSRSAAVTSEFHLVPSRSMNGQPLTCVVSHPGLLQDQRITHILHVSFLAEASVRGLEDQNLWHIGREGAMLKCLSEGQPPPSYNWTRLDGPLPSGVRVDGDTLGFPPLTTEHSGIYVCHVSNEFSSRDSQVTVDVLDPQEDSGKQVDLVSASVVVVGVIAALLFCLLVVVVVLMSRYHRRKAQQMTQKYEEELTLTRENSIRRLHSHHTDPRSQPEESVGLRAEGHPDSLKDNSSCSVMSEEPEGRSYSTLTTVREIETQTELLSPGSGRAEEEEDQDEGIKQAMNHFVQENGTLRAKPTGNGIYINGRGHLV

Rat N4 [4] = test: flow cytometry, transfected CHO cells; ambiguous fit
Mouse N4 [5] = test: as above
[6] = biological target: T1, human Nectin-4 on cells (CHO cells …); test: flow cytometry, transfected CHO cells

B3: Ch-15A7.5 (antibody, V domains shown)
VH: EVKLVESGGGLVQPGGSRKLSCAASGFTFSNYGMAWVRQAPGKGPEWVAFISNLAYGINYADTVTGRFTISRENAKNTLYLEMRSLRSEDTAMYYCARGARATGWFAYWGQGTLVTVSA
VL: DIVMTQSQKFMSTSIGDRVSVTCKASQNVDTHVAWYQEKPGQSPKALIYSASYRYSGVPDRFTGSGSGTDFTLTISNVQSEDLADYFCQQYNSYPLTFGGGTKLEIK
- EC50 (Monkey N4): 1.22 nM
- EC50 (Rat N4 [4]): ~5.16 nM
- EC50 (Mouse N4 [5]): ~31.2 nM

B5: Ch-3A1.4 (antibody, V domains shown)
VH: DVQLQESGPSLVKPSQTLSLTCSVTGDSITSGYWNWIRKFPGNKLEYMGYISNSGITYYNPSLKSRISITRDTSKNQYFLQLNSVTAEDTATYYCTRFGSTMILYYTMDYWGQGTSVTVSS
VL: DIVMTQSPVTLSVTPGDRVSLSCRASQSISDYLHWYQQKSQESPRLLIKYASKSISGIPSRFSGSGSGSNFTLSINSVEPEDVGVYYCQNGHSFPLTFGAGTKLELK
- EC50 [6]: 2.83 nM

B6: Ch-5A12.2 (antibody, V domains shown)
VH: QIQLQQSGAELVKPGASVTLSCKTSGFTFNSMYISWLKQKPGQSLEWIAWIYAGTGGTRFNQKFTGKVQLTVDTSSSTAYMQFSSLTTDDSAIYYCAIRSGFVPMDYWGQGTSVTVSS
VL: SIVMTQTPKFLLVSAGDRVTITCKASQSVSNDVAWYQQKPGQSPKLLIYYASNRYTGVPDRFTGSGYGTDFTFTISTVQAEDLAVYFCQQDYSSPWTFGGGTKLEIK
- EC50 (Monkey N4): 0.134 nM
- EC50 (Rat N4 [1]): 0.478 nM
- EC50 (Mouse N4 [5]): ~205 nM

B7: Ch-5A12.2 (chimeric anti-Nectin-4 monoclonal antibody 5A12.2) (antibody, V domains shown)
VH: QIQLQQSGAELVKPGASVTLSCKTSGFTFNSMYISWLKQKPGQSLEWIAWIYAGTGGTRFNQKFTGKVQLTVDTSSSTAYMQFSSLTTDDSAIYYCAIRSGFVPMDYWGQGTSVTVSS
VL: SIVMTQTPKFLLVSAGDRVTITCKASQSVSNDVAWYQQKPGQSPKLLIYYASNRYTGVPDRFTGSGYGTDFTFTISTVQAEDLAVYFCQQDYSSPWTFGGGTKLEIK
- EC50 [6]: 0.37 nM

Now from value to binder:

- EC50 (Monkey N4): 0.0678 nM
- EC50 (Rat N4 [1]): 0.097 nM
- EC50 (Mouse N4 [2]): 41.1 nM
B1: HA22 (antibody, V domains shown)
VH: EVQLVESGGGLVQPGGSLRLSCAASGFTFSSYNMNWVRQAPGKGLEWVSYISSSSSTIYYADSVKGRFTISRDNAKNSLSLQMNSLRDEDTAVYYCARAYYYGMDVWGQGTTVTVSS
VL: DIQMTQSPSSVSASVGDRVTITCRASQGISGWLAWYQQKPGKAPKFLIYAASTLQSGVPSRFSGSGSGTDFTLTISSLQPEDFATYYCQQANSFPPTFGGGTKVEIK

- EC50 [3]: 0.346 nM
B2: HA22 (Enfortumab), human monoclonal anti-Nectin-4 antibody (antibody, V domains shown)
VH: EVQLVESGGGLVQPGGSLRLSCAASGFTFSSYNMNWVRQAPGKGLEWVSYISSSSSTIYYADSVKGRFTISRDNAKNSLSLQMNSLRDEDTAVYYCARAYYYGMDVWGQGTTVTVSS
VL: DIQMTQSPSSVSASVGDRVTITCRASQGISGWLAWYQQKPGKAPKFLIYAASTLQSGVPSRFSGSGSGTDFTLTISSLQPEDFATYYCQQANSFPPTFGGGTKVEIK

- EC50 [6]: 0.692 nM
B4: Ch-15A7.5 (chimeric anti-Nectin-4 monoclonal antibody 15A7.5) (antibody, V domains shown)
VH: EVKLVESGGGLVQPGGSRKLSCAASGFTFSNYGMAWVRQAPGKGPEWVAFISNLAYGINYADTVTGRFTISRENAKNTLYLEMRSLRSEDTAMYYCARGARATGWFAYWGQGTLVTVSA
VL: DIVMTQSQKFMSTSIGDRVSVTCKASQNVDTHVAWYQEKPGQSPKALIYSASYRYSGVPDRFTGSGSGTDFTLTISNVQSEDLADYFCQQYNSYPLTFGGGTKLEIK
